Molecular target: peptide VWF73 (FRET substrate encompassing the ADAMTS13 recognition site of von Willebrand factor) (UniProt P04275)
Assay: cell-based or functional assay
Details: scale: µL of normal human plasma equivalent per 200,000 cells

Chain of peptide VWF73 (FRET substrate encompassing the ADAMTS13 recognition site of von Willebrand factor) (P04275 1596-1668 limits assumed): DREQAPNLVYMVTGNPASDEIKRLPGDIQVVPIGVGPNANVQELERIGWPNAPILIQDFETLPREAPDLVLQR

VWF73 FRET assay, ADAMTS13 enzymatic activity (K562 cells): 10 | VWF73 FRET assay, ADAMTS13 enzymatic activity (iPSC-derived erythroid cells): 10
Substance: GPI-ADAMTS13 (AD5): first 745 amino acids of human ADAMTS13 fused to the DAF GPI anchor sequence (from UniProt Q76LX8 75-745) (enzyme)

— patent US20220213462A1
